The results in this text go back to patent publication US20130133089A1 (MEDICAL RESEARCH INFRASTRUCTURE AND HEALTH SERVICES FUND OF …, published 2013).

Changes are numbered by the printed parent chain. Names may count otherwise. “And” between values parts separate entries of the source, which are not always exact repeats. Identical values can stand only once.

The chains are these.
T1: Recombinant human leptin binding domain (hLBD) (human, UniProt P48357 428-635, biotinylated with Sulfo-NHS-LC-Biotin in the yeast display assays; not labelled when immobilized in the plate binding assay)
T1 construct: CRH2 sub-domain of the leptin receptor; Prepared in the applicants' laboratory; also called soluble human leptin receptor; CHR2
T1 sequence (looked up): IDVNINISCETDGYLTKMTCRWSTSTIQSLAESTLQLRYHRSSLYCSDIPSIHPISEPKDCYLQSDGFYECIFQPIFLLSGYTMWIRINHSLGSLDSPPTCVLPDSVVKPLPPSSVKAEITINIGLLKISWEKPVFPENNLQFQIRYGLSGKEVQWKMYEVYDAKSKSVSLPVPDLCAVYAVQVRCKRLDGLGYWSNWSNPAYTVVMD

B1: wild type mouse leptin displayed on yeast as Aga2p fusion (ligand, UniProt P41160 22-167, looked up, not shown: large carriers; small tags and cut ends)
chain: VPIQKVQDDTKTLIKTIVTRINDISHTQSVSAKQRVTGLDFIPGLHPILSLSKMDQTLAVYQQVLTSLPSQNVLQIANDLENLRDLLHLLAFSKSCSLPQTSGLQKPESLDGVLEASLYSTEVVALSRLQGSLQDILQQLDVSPEC
notes: mature; also called mlep wt; mlep, wt1
B2: yeast-displayed mouse leptin clone H17 (S109F) (ligand, UniProt P41160 22-167, looked up, not shown: large carriers; small tags and cut ends)
chain: B1 chain with S109F
notes: mature
B3: yeast-displayed mouse leptin clone H12 (S97Y) (ligand, UniProt P41160 22-167, looked up, not shown: large carriers; small tags and cut ends)
chain: B1 chain with S97Y
notes: mature; also called H20; H24
B4: yeast-displayed mouse leptin clone H22 (T12I) (ligand, UniProt P41160 22-167, looked up, not shown: large carriers; small tags and cut ends)
chain: B1 chain with T12I
notes: mature
B5: yeast-displayed mouse leptin clone H19 (D23G, T37A, G44D) (ligand, UniProt P41160 22-167, looked up, not shown: large carriers; small tags and cut ends)
chain: B1 chain with D23G, T37A, G44D
notes: mature
B6: yeast-displayed mouse leptin clone H3 (D23G, L68M, S97F, S132Y) (ligand, UniProt P41160 22-167, looked up, not shown: large carriers; small tags and cut ends)
chain: B1 chain with D23G, L68M, S97F, S132Y
notes: mature; also called H15; H4
B7: yeast-displayed mouse leptin clone H30 (D23H) (ligand, UniProt P41160 22-167, looked up, not shown: large carriers; small tags and cut ends)
chain: B1 chain with D23H
notes: mature
B8: yeast-displayed mouse leptin clone H7 (K11R, Q34R, T37A, F92C, S97Y, I136V) (ligand, UniProt P41160 22-167, looked up, not shown: large carriers; small tags and cut ends)
chain: B1 chain with K11R, Q34R, T37A, F92C, S97Y, I136V
notes: mature; also called H18; H27
B9: superactive mouse leptin antagonist (SMLA), D23L/L39A/D40A/F41A mouse leptin, P41160 22-167 (ligand)
chain: B1 chain with I17L, D23L, L39A, D40A, F41A, L140V, V142L, E145G
B10: pegylated superactive mouse leptin antagonist (PEG-SMLA), P41160 22-167 (ligand)
chain: B1 chain with I17L, D23L, L39A, D40A, F41A, L140V, V142L, E145G
modifications: here or on the partner: mPEG-propionyl-ALD 20 kDa, preferentially on the N-terminal amino group (85% monopegylated, ~9% double pegylated)
B11: human leptin super antagonist (SHLA), human leptin D23L/L39A/D40A/F41A, P41159 22-167 (ligand)
chain: VPIQKVQDDTKTLIKTIVTRINLISHTQSVSSKQKVTGAAAIPGLHPILTLSKMDQTLAVYQQILTSMPSQNVIQISNDLENLRDLLHVLAFSKSCHLPWASGLETLDSLGGVLEASGYSTEVVALSRLQGSLQDMLWQLDLSPGC
B12: mouse leptin antagonist H19 (D23G, T37A, G44D + L39A/D40A/F41A), P41160 22-167 (ligand)
chain: AVPIQKVQDDTKTLIKTIVTRINGISHTQSVSAKQRVAGAAAIPDLHPILSLSKMDQTLAVYQQVLTSLPSQNVLQIANDLENLRDLLHLLAFSKSCSLPQTSGLQKPESLDGVLEASLYSTEVVALSRLQGSLQDILQQLDVSPEC
B13: pegylated mouse leptin antagonist (PEG-MLA), P41160 22-167 (ligand)
chain: B12 chain with G24D, A38T, D45G
modifications: here or on the partner: pegylated (method previously described for MLA; 20 kDa PEG, site not restated here)
B14: recombinant mouse leptin mutein H12 (S97Y), agonist, P41160 22-167 (ligand)
chain: B12 chain with G24D, A38T, A40L, A41D, A42F, D45G, S98Y
B15: mouse leptin antagonist H15 (D23G, L68M, S97F, S132Y + L39A/D40A/F41A), P41160 22-167 (ligand)
chain: B12 chain with A38T, D45G, L69M, S98F, S133Y
B16: mouse leptin antagonist H22 (T12I + L39A/D40A/F41A), P41160 22-167 (ligand)
chain: B12 chain with T13I, G24D, A38T, D45G
B17: mouse leptin antagonist H16 (D23G, G112S + L39A/D40A/F41A), P41160 22-167 (ligand)
chain: B12 chain with A38T, D45G, G113S
B18: recombinant mouse leptin mutein H15 (D23G, L68M, S97F, S132Y), agonist, P41160 22-167 (ligand)
chain: B12 chain with A38T, A40L, A41D, A42F, D45G, L69M, S98F, S133Y
B19: mouse leptin antagonist H12 (S97Y + L39A/D40A/F41A), P41160 22-167 (ligand)
chain: B12 chain with G24D, A38T, D45G, S98Y
B20: recombinant mouse leptin mutein H22 (T12I), agonist, P41160 22-167 (ligand)
chain: B12 chain with T13I, G24D, A38T, A40L, A41D, A42F, D45G
B21: yeast-displayed mouse leptin clone H2 (A125T, S132Y) (ligand, UniProt P41160 22-167, looked up, not shown: large carriers; small tags and cut ends)
chain: B1 chain with A125T, S132Y
notes: mature
B22: yeast-displayed mouse leptin clone H6 (D23G, V30D, Y119H) (ligand, UniProt P41160 22-167, looked up, not shown: large carriers; small tags and cut ends)
chain: B1 chain with D23G, V30D, Y119H
notes: mature
B23: yeast-displayed mouse leptin clone H16 (D23G, G112S) (ligand, UniProt P41160 22-167, looked up, not shown: large carriers; small tags and cut ends)
chain: B1 chain with D23G, G112S
notes: mature
B24: yeast-displayed mouse leptin clone L1 (D23N, Q34L, L114P) (ligand, UniProt P41160 22-167, looked up, not shown: large carriers; small tags and cut ends)
chain: B1 chain with D23N, Q34L, L114P
notes: mature
B25: mouse leptin antagonist H12 (S97Y + L39A/D40A/F41A) (ligand)
chain: B12 chain with G24D, A38T, D45G, S98Y
notes: mature; also called H12 (antagonist)
B26: mouse leptin antagonist H16 (D23G, G112S + L39A/D40A/F41A) (ligand)
chain: B12 chain with A38T, D45G, G113S
notes: mature; also called H16 (antagonist)
B27: mouse leptin antagonist H15 (D23G, L68M, S97F, S132Y + L39A/D40A/F41A) (ligand)
chain: B12 chain with A38T, D45G, L69M, S98F, S133Y
notes: mature; also called H15 (antagonist)
B28: mouse leptin antagonist H19 (D23G, T37A, G44D + L39A/D40A/F41A) (ligand)
chain: B12 chain
notes: mature; also called H19 (antagonist)
B29: mouse leptin antagonist H22 (T12I + L39A/D40A/F41A) (ligand)
chain: B12 chain with T13I, G24D, A38T, D45G
notes: mature; also called H22 (antagonist)

Chain of long form of human leptin receptor (hLEPR) on BAF/3 or H-49 (HEK-293) cells (human), P48357 (P48357 22-1165): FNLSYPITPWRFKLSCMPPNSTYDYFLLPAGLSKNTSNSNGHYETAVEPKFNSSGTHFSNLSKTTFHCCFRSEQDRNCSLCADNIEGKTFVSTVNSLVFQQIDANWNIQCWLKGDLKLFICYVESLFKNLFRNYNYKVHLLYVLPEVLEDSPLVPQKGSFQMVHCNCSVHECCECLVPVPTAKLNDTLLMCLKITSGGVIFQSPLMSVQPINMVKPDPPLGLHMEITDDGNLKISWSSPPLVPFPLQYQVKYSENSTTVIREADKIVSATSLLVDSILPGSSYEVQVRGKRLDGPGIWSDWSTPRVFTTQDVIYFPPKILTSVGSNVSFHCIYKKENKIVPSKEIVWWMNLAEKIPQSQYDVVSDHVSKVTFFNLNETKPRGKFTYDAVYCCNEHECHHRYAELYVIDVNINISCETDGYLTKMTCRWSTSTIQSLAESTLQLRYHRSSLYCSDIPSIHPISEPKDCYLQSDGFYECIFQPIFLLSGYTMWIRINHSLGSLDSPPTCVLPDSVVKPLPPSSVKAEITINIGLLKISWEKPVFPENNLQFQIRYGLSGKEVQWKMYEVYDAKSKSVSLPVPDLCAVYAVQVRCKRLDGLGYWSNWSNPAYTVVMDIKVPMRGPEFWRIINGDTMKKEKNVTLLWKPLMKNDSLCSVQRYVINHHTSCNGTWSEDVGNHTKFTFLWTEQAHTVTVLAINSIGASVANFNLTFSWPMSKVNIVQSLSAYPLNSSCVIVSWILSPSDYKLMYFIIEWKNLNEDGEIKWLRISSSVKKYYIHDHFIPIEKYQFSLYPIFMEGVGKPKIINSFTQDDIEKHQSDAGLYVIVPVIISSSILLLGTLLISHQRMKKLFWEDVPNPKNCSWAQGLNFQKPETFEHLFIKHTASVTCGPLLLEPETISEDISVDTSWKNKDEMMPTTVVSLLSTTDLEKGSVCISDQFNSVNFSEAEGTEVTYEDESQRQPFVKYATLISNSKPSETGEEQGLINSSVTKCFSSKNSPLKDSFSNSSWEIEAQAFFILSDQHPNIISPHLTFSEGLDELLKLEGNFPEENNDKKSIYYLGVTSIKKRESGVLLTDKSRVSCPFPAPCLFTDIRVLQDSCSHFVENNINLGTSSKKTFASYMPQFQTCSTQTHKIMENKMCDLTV

The first test deals with T1, Recombinant human leptin binding domain …. Description: yeast display, flow cytometry titration with biotinylated hLBD (FIG. 4A). An excerpt:
(§1) Those 7 mouse leptin mutants were selected for preparation of respectively mutated leptins expressed in E. coli.
On the technique in general: Flow cytometry measures light scatter and fluorescence of single cells or particles in a stream.
In the case of B1, the equilibrium dissociation constant (Kd) (commonly the constant that tells how readily two partners part at equilibrium) was 159 nM and 115 nM.

Take B2: the Bmax was determined as 3600 MFI and the dissociation constant Kd is 620 nM.

Turning to B3, the Bmax was found to be 961 MFI and the dissociation constant Kd is 130 nM.

Turning to B4, the Bmax was determined as 852 MFI and the dissociation constant Kd turned out to be 122 nM.

Take B5: the Bmax came out at 968 MFI and the Kd is 104 nM.

For B6, the Bmax was 1450 MFI and the Kd is 91.7 nM.

B7: the Bmax amounted to 847 MFI and the Kd stood at 59.5 nM.

In the case of B8, the Bmax was 1590 MFI and the dissociation constant (Kd) is 126 nM.

The next test addresses long form of human leptin receptor (hLEPR) on BAF/3 or H-49 (HEK-293) cells (human), P48357. Description: cell-based or functional assay.
Regarding B9, the BAF/3 bioassay: fold increase in bioactivity as compared to the WT mouse leptin antagonist was 13.9 fold; the Luciferase bioassay: fold increase in bioactivity as compared to the WT mouse leptin antagonist stood at 13.4 fold; the biological (inhibitory) activity, FIG. 12A: fold higher than that of HLA was > 9 fold.

On to B10, for which the biological activity in H-49 cells: fold reduction as compared to the non-pegylated SMLA turned out to be 9 fold.

On to B11, for which the biological (inhibitory) activity, FIG. 12A: fold higher than that of HLA was > 9 fold.

Consider B12, for which the BAF/3 bioassay: fold increase in bioactivity as compared to the WT mouse leptin antagonist came to 3.5 fold and the Luciferase bioassay: fold increase in bioactivity as compared to the WT mouse leptin antagonist stood at 2.9 fold.

In turn, B13 returned a biological activity: fold reduction by pegylation of MLA of 7 fold.

On to B14, for which the BAF/3 bioassay: fold increase in bioactivity as compared to the WT mouse leptin came to 0.9 fold and the Luciferase bioassay: fold increase in bioactivity as compared to the WT mouse leptin turned out to be 0.7 fold.

As for B15, the BAF/3 bioassay: fold increase in bioactivity as compared to the WT mouse leptin antagonist is 4.8 fold and the Luciferase bioassay: fold increase in bioactivity as compared to the WT mouse leptin antagonist was found to be 4.2 fold.

With B16, the BAF/3 bioassay: fold increase in bioactivity as compared to the WT mouse leptin antagonist worked out at 2.4 fold and the Luciferase bioassay: fold increase in bioactivity as compared to the WT mouse leptin antagonist came out at 3.3 fold.

Consider B17, for which the BAF/3 bioassay: fold increase in bioactivity as compared to the WT mouse leptin antagonist worked out at 3.3 fold and the Luciferase bioassay: fold increase in bioactivity as compared to the WT mouse leptin antagonist turned out to be 3.3 fold.

Regarding B18, the BAF/3 bioassay: fold increase in bioactivity as compared to the WT mouse leptin was 0.5 fold and the Luciferase bioassay: fold increase in bioactivity as compared to the WT mouse leptin amounted to 0.8 fold.

In the case of B19, the BAF/3 bioassay: fold increase in bioactivity as compared to the WT mouse leptin antagonist worked out at 0.8 fold and the Luciferase bioassay: fold increase in bioactivity as compared to the WT mouse leptin antagonist worked out at 0.1 fold.

With B20, the BAF/3 bioassay: fold increase in bioactivity as compared to the WT mouse leptin was found to be 0.8 fold and the Luciferase bioassay: fold increase in bioactivity as compared to the WT mouse leptin worked out at 0.7 fold.

The target of a further test is T1, Recombinant human leptin binding domain …. Description: yeast display, flow cytometry titration with biotinylated hLBD (FIG. 4B).
From the text: as §1
In the case of B1, the Kd is 95 nM and 95.7 nM.

With B21, the Bmax was found to be 2570 MFI and the Kd worked out at 243 nM.

With B3, the Bmax came out at 785 MFI and the dissociation constant Kd was 103 nM.

With B22, the Bmax was found to be 1290 MFI and the Kd is 99.1 nM.

In the case of B23, the Bmax is 550 MFI and the dissociation constant Kd stood at 44 nM.

As for B4, the Bmax came out at 719 MFI and the dissociation constant Kd was 82.3 nM.

As to B5, the Bmax stood at 966 MFI and the dissociation constant Kd was 68.4 nM.

On to B24, for which the Bmax was 1680 MFI and the equilibrium dissociation constant (Kd) came out at 158 nM.

As for B6, the Bmax came to 1350 MFI and the dissociation constant (Kd) was 92.8 nM.

Turning to B7, the Bmax was 741 MFI and the Kd turned out to be 40.9 nM.

For B8, the Bmax was 1140 MFI and the dissociation constant Kd worked out at 83.5 nM.

The target is the same in a further test. As to the kind of experiment: competitive plate binding assay: immobilized hLBD, biotinylated mouse leptin as ligand, mutein as competitor. The procedure:
Biotinylated mouse leptin served as the ligand in all competitive experiments and the respective mouse leptin or mouse or human leptin antagonist muteins as competitors. The hLBD was used as the receptor source. Polystyrene 96-well microtiter plates were coated overnight at 4° C. with 100 μl of 40 μM hLBD in PBS pH 7.4. Wells were then washed one time with PBST (PBS containing 0.05 Tween 20) and blocked with PBS containing 3% skim milk for two hours in room temperature. All further incubations were carried out at room temperature. Wells were washed one time with PBST and incubated with different concentrations of un-labeled leptins (50 μl/well) for 30 min and then 50 μl of 62.5 μM of biotinylated mouse leptin were added to each well for another two hours. Then the wells were washed three times with PBST and incubated with 1:30,000 streptavidin-HRP in PBS containing 1 Tween 20 for one hour. Subsequently the wells were washed three times with PBST and the reaction was quantified in 450 nm by microplate reader ELISA Plate Reader ELx808—Bio-Tek Instrument Inc. (Winooski, Vt., USA) using TMB according to manufacturer's instructions.
Take B25: the “fold increase in affinity as compared to the WT mouse leptin antagonist” value (shortened to “fold increase in affinity”) worked out at 1.4 fold.

For the molecule B26, the “fold increase in affinity” value was 11 fold.

On to B27, for which the “fold increase in affinity” value is 12.4 fold.

Take B28: the “fold increase in affinity” value is 6.1 fold.

As for B29, the “fold increase in affinity” value worked out at 11.2 fold.
